Where “and” joins values, the source holds several entries; their conditions need not be identical. Equal entries are not always repeated. Blank lines part the entries; values can stand above or below the binder they belong to.
Key:
[1] = target: recombinant human IL-5 protein with His tag (human) (UniProt P05113); experiment: ELISA, biotin-human IL-5 on streptavidin; antibody 0.5333 nM
[2] = target: recombinant human IL-5 protein with His tag (human) (UniProt P05113); experiment: ELISA, biotin-human IL-5 on streptavidin; antibody 0.0002 nM
[3] = target: recombinant human IL-5 protein with His tag (human) (UniProt P05113); experiment: ELISA, biotin-human IL-5 on streptavidin; antibody 0.1067 nM
[4] = target: recombinant human IL-5 protein with His tag (human) (UniProt P05113); experiment: ELISA, biotin-human IL-5 on streptavidin; antibody 0.0213 nM
[5] = target: recombinant human IL-5 protein with His tag (human) (UniProt P05113); experiment: ELISA, biotin-human IL-5 on streptavidin; antibody 2.6667 nM
[6] = target: recombinant human IL-5 protein with His tag (human) (UniProt P05113); experiment: ELISA, biotin-human IL-5 on streptavidin; antibody 13.3333 nM
[7] = target: recombinant human IL-5 protein with His tag (human) (UniProt P05113); experiment: ELISA, biotin-human IL-5 on streptavidin; antibody 0.0043 nM
[8] = target: recombinant human IL-5 protein with His tag (human) (UniProt P05113); experiment: ELISA, biotin-human IL-5 on streptavidin; antibody 0.0009 nM
[9] = target: recombinant human IL-5 protein (human) (UniProt P05113); experiment: FACS blocking: biotin-IL-5 bound to CHOK1 IL-5Ra/CSF2RB cells, Ab 0.0107 nM
[10] = target: recombinant human IL-5 protein (human) (UniProt P05113); experiment: FACS blocking: biotin-IL-5 bound to CHOK1 IL-5Ra/CSF2RB cells, Ab 1.3333 nM
[11] = target: recombinant human IL-5 protein (human) (UniProt P05113); experiment: FACS blocking: biotin-IL-5 bound to CHOK1 IL-5Ra/CSF2RB cells, Ab 0.0533 nM
[12] = target: recombinant human IL-5 protein (human) (UniProt P05113); experiment: ELISA, biotin-human IL-5 on streptavidin plate, Ab 0.0043 nM
[13] = target: recombinant human IL-5 protein (human) (UniProt P05113); experiment: ELISA, biotin-human IL-5 on streptavidin plate, Ab 2.6667 nM
[14] = target: recombinant human IL-5 protein (human) (UniProt P05113); experiment: cell-based or functional assay
[15] = target: recombinant human IL-5 protein (human) (UniProt P05113); experiment: ELISA, biotin-human IL-5 on streptavidin plate, Ab 13.3333 nM
[16] = target: recombinant human IL-5 protein (human) (UniProt P05113); experiment: ELISA, biotin-human IL-5 on streptavidin plate, Ab 0.1067 nM
[17] = target: recombinant human IL-5 protein (human) (UniProt P05113); experiment: ELISA, biotin-human IL-5 on streptavidin plate, Ab 0.0009 nM
[18] = target: recombinant human IL-5 protein (human) (UniProt P05113); experiment: FACS blocking: biotin-IL-5 bound to CHOK1 IL-5Ra/CSF2RB cells, Ab 33.3333 nM
[19] = target: recombinant human IL-5 protein (human) (UniProt P05113); experiment: ELISA, biotin-human IL-5 on streptavidin plate, Ab 0.0002 nM
[20] = target: recombinant human IL-5 protein (human) (UniProt P05113); experiment: FACS blocking: biotin-IL-5 bound to CHOK1 IL-5Ra/CSF2RB cells, Ab 6.6667 nM
[21] = target: recombinant human IL-5 protein (human) (UniProt P05113); experiment: FACS blocking: biotin-IL-5 bound to CHOK1 IL-5Ra/CSF2RB cells, Ab 0.2667 nM
[22] = target: recombinant human IL-5 protein (human) (UniProt P05113); experiment: FACS blocking: biotin-IL-5 bound to CHOK1 IL-5Ra/CSF2RB cells, Ab 0.0004 nM
[23] = target: recombinant human IL-5 protein (human) (UniProt P05113); experiment: ELISA, biotin-human IL-5 on streptavidin plate, Ab 0.0213 nM
[24] = target: recombinant human IL-5 protein (human) (UniProt P05113); experiment: FACS blocking: biotin-IL-5 bound to CHOK1 IL-5Ra/CSF2RB cells, Ab 0.0021 nM
[25] = target: recombinant human IL-5 protein (human) (UniProt P05113); experiment: SPR, human IL-5 immobilized on CM5 chip, chimeric antibody as analyte, 1:1 global fit
[26] = target: recombinant human IL-5 protein (human) (UniProt P05113); experiment: ELISA, biotin-human IL-5 on streptavidin plate, Ab 0.5333 nM

OD450 nm [1]: 2.76
OD450 nm [2]: 0.073 and 0.074
OD450 nm [3]: 1.42 and 1.47
OD450 nm [4]: 0.438 and 0.475
OD450 nm [5]: 3.09 and 3.2
OD450 nm [6]: 3.21 and 3.52
OD450 nm [7]: 0.158 and 0.159
OD450 nm [8]: 0.088 and 0.09
B1: 147D7H2 (murine hybridoma antibody) (antibody, V domains shown)
VH: EVQLQQSGAELVKPGASVKLSCTASGFNIKDYFIHWVKQRTEQGLEWIGRIDTEDGETKYAPKFQGKATITIDTSSNTAYLYFSSLTSEDTAMYYCARYGNYVAMDYWGQGTSVTVSS
VL: QIVLTQSPALMSASPGEKVTMTCSASSSVSYMFWYQQKPSSSPKPWIYLTSKLASGVPARFSGSGSGTSYSLTISSVEAEDAATYYCQQWNSNPYTFGGGTKLEIK

Fluorescence intensity [9]: 88 MFI
Fluorescence intensity [10]: 46 MFI
Fluorescence intensity [11]: 87 MFI
OD450 nm [12]: 0.108 OD450 nm and 0.106 OD450 nm
OD450 nm [13]: 2.96 OD450 nm and 3.01 OD450 nm
RLU, CTLL-2 proliferation with IL-5, Ab 0.000170667 nM [14]: 59900 RLU and 54900 RLU
RLU, CTLL-2 proliferation with IL-5, Ab 0.000853333 nM [14]: 59800 RLU and 56700 RLU
RLU, CTLL-2 proliferation with IL-5, Ab 0.004266667 nM [14]: 64400 RLU and 61300 RLU
RLU, CTLL-2 proliferation with IL-5, Ab 0.02133333 nM [14]: 62100 RLU and 59300 RLU
RLU, CTLL-2 proliferation with IL-5, Ab 0.1066667 nM [14]: 54800 RLU and 52000 RLU
RLU, CTLL-2 proliferation with IL-5, Ab 0.5333334 nM [14]: 44900 RLU and 38200 RLU
RLU, CTLL-2 proliferation with IL-5, Ab 2.666667 nM [14]: 28000 RLU and 25400 RLU
RLU, CTLL-2 proliferation with IL-5, Ab 13.33333 nM [14]: 16200 RLU and 17000 RLU
RLU, CTLL-2 proliferation with IL-5, Ab 66.66666 nM [14]: 12200 RLU and 12400 RLU
RLU, CTLL-2 proliferation with IL-5, Ab 3.41333E-05 nM [14]: 60700 RLU and 50200 RLU
RLU, TF-1 proliferation with IL-5, Ab 0.00001 nM [14]: 110000 RLU and 113000 RLU
RLU, TF-1 proliferation with IL-5, Ab 0.00003 nM [14]: 111000 RLU and 109000 RLU
RLU, TF-1 proliferation with IL-5, Ab 0.00017 nM [14]: 111000 RLU
RLU, TF-1 proliferation with IL-5, Ab 0.00085 nM [14]: 109000 RLU and 108000 RLU
RLU, TF-1 proliferation with IL-5, Ab 0.00427 nM [14]: 109000 RLU and 114000 RLU
RLU, TF-1 proliferation with IL-5, Ab 0.02133 nM [14]: 99100 RLU and 101000 RLU
RLU, TF-1 proliferation with IL-5, Ab 0.10667 nM [14]: 81400 RLU and 82800 RLU
RLU, TF-1 proliferation with IL-5, Ab 0.53333 nM [14]: 60400 RLU and 56800 RLU
RLU, TF-1 proliferation with IL-5, Ab 2.66667 nM [14]: 45200 RLU and 42600 RLU
RLU, TF-1 proliferation with IL-5, Ab 13.33333 nM [14]: 38500 RLU and 40000 RLU
OD450 nm [15]: 3.7 OD450 nm and 3.71 OD450 nm
OD450 nm [16]: 0.716 OD450 nm and 0.77 OD450 nm
OD450 nm [17]: 0.081 OD450 nm and 0.087 OD450 nm
Fluorescence intensity [18]: 35 MFI
OD450 nm [19]: 0.083 OD450 nm and 0.098 OD450 nm
Fluorescence intensity [20]: 39 MFI
Fluorescence intensity [21]: 67 MFI
Fluorescence intensity [22]: 91 MFI
OD450 nm [23]: 0.224 OD450 nm and 0.221 OD450 nm
Fluorescence intensity [24]: 88 MFI
Kd [25]: 0.188 nM
koff [25]: 5.24e-05 s⁻¹
kon [25]: 279000 M⁻¹ s⁻¹
OD450 nm [26]: 1.93 OD450 nm and 2 OD450 nm
B2: 154F10G8 mouse-human chimeric antibody (antibody, human IgG4, V domains shown)
VH: QVQLQQPGAELVKPGASVKLSCKASGYTFTSYWITWVKQRPGQGLEWIGDIYPGSGSTFYNEKFKSEATLTVDTSSSTAYMQLSSLTSEDSAVFYCSTETTLGYWGQGTTLTVSS
VL: DVLMTQTPLSLPVSLGDQASISCRSSQSIVHNNGNTYLEWYLQKPGQSPKLLIYKVSNRFSGVPDRFSGSGSGTDFTLKISRVEAEDLGVYYCFQGSHVPFTFGSGTKLEIK

OD450 nm [1]: 2.76 and 2.69
OD450 nm [2]: 0.079 and 0.07
OD450 nm [3]: 1.69 and 1.71
OD450 nm [4]: 0.595 and 0.64
OD450 nm [5]: 3.23 and 3.17
OD450 nm [6]: 3.3 and 3.49
OD450 nm [7]: 0.205 and 0.193
OD450 nm [8]: 0.093 and 0.092
B3: 154F10G8 (murine hybridoma antibody) (antibody, V domains shown)
VH: B2 VH
VL: B2 VL

Reference: patent US20220010008A1
